Target: microtubules (MTs) of porcine brain Tubulin (porcine) (UniProt P02550)
Test: turbidimetry

Chain of LEM2 N-terminal domain (LEM2NTD; AA:1–208) (Q8NC56 1-208): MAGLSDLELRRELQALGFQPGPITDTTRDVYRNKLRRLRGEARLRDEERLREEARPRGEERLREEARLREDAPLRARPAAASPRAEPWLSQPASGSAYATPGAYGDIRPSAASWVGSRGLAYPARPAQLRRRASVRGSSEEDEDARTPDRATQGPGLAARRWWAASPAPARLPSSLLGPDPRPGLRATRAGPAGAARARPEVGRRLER

| K (apparent) (half-maximal concentration of MT bundling by light scattering) | half max (half-maximal concentration of MT bundling by light scattering) | Substance |
| --- | --- | --- |
| 1.3 µM |  | LEM2 N-terminal domain (LEM2NTD; AA:1–208) (from UniProt Q8NC56 1-208) (domain or fragment) |
|  | 2.82 µM | LEM2_(Mim1(S82D, S90D, S96D, Y98D, T100D, Y104D)) (from UniProt Q8NC56 1-208) (domain or fragment) |
|  | 8.44 µM | LEM2_(Mim2(Y122D, S134D, S138D, S139D, T147D, S166D, S174D, S175D)) (from UniProt Q8NC56 1-208) (domain or fragment) |
